Assay [1] concerns the target T1, human PD-L1-Fc protein (human, UniProt Q9NZQ7 19-239).
T1 construct: Coated on ELISA plates; also called huPD-L1; not shown: Fc part
Description: ELISA receptor blocking, coated PD-L1-Fc, competitor biotin PD-1-Fc. As for the experimental part:
To evaluate the blocking effect of HL1210-3 mouse mAb on recombinant human PD-L1 to bind to its receptor PD-1, the ELISA based receptor blocking assay was employed. Briefly, microtiter plates were coated with human PD-L1-Fc protein at 1 μg/ml in PBS, 100 μl/well at 4° C. overnight, then blocked with 100 μl/well of 5% BSA. 50 μl biotin-labeled human PD-1-Fc protein and 3-fold dilutions of HL1210-3 antibodies starting from 2 μg/ml at 50 μl were added to each well and incubated for 1 hour at 37° C. The plates were washed with PBS/Tween and then incubated with Streptavidin-HRP for 1 hour at 37° C. After washing, the plates were developed with TMB substrate and analyzed by spectrophotometer at OD 450-630 nm.
A general note: In an ELISA, binding on a coated surface is turned into a signal by an enzyme label.

In assay [2] the target is T2, human PD-L1-his taq protein (human, UniProt Q9NZQ7 19-239, limits assumed).
T2 construct: also called recombinant PD-L1 protein; recombinant human PD-L1; not shown: his tag
Nature of the assay: SPR Biacore T200, antibody captured by anti-mouse Fc, PD-L1-his injected. As for the experimental part: The binding of the HL1210-3 antibodies to recombinant PD-L1 protein (human PD-L1-his taq) was tested with BIACORE™ using a capture method. The HL1210-3 mouse mAb was captured using anti-mouse Fc antibody coated on a CM5 chip. A series dilution of human PD-L1-his taq protein was injected over captured antibody for 3 mins at a flow rate of […]. The antigen was allowed to dissociate for 900 s. All the experiment were carded out on a Biacore T200. Data analysis was carried out using Biacore T200 evaluation software.

The target of assay [3] is T3, human PD-L1 expressed on mammalian cells (human, UniProt Q9NZQ7 19-290).
T3 construct: whole, on cells; also called PDL1-CHOK1 cells; PDL1-Raji cells
Nature of the assay: FACS receptor blocking on PDL1-CHOK1 cells, competitor biotin huPD-1. As for the experimental part:
(§1) To evaluate the blocking effect of HL1210-3 mouse mAb on human PD-L1 expressed on mammalian cells to bind to its receptor PD-1, the FACS-based receptor blocking assay was used. Briefly, PDL1-CHOK1 cells were firstly incubated with 3-fold serious diluted HL1210-3 mouse mAb starting at 20 μg/ml at RT for 1 hour. After wash by FACS buffer (PBS with 2% FBS), the biotin-labeled huPD-1 was added to each well and incubated at RT for 1 hour. Then, the Streptavidin-PE was added to each well for 0.5 hour post twice wash with FACS buffer. The mean florescence intensity (MFI) of PE was evaluated by FACSAriaIII.

Assay [4] deals with T3, human PD-L1 expressed on mammalian cells. Nature of the assay: FACS-based receptor blocking on PDL1-CHOK1 cells; blocked ligand biotin-labeled huPD-1; unit from the x axis Log [Con. M]; the text prints the rounded 2.56 nM. The procedure:
as §1

Assay [5] addresses T1, human PD-L1-Fc protein. Description: ELISA on coated PD-L1-Fc.
Assay [6] concerns the target T2, human PD-L1-his taq protein. Nature of the assay: SPR Biacore T200, antibody captured, PD-L1-his injected. Put shortly: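 HL1210-3 mouse mAb was captured via anti-mouse Fc antibody on a CM5 chip, then serially diluted PD-L1-his was injected for 3 min […]. Dissociation was followed for 900 s.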
In general terms: In SPR one partner is held on a chip, and binding of the other changes the refractive index at the surface.

For assay [7], the target named is T4, rhesus PD-L1-Fc protein (rhesus, UniProt F6PJN1 19-239).
T4 construct: not shown: Fc part
Description: ELISA on coated rhesus PD-L1-Fc. The procedure:
(§2) To evaluate the binding of humanized antibodies to huPD-L1, Mouse PD-L1, Rat PD-L1, […], the antibodies were performed for the ELISA testing. Briefly, microtiter plates were coated with human, mouse, rat and rhesus PD-L1-Fc protein at 1 μg/ml in PBS, 100 μl/well at […] overnight, then blocked with […] of 5% BSA. Three-fold dilutions of humanized antibodies starting from 1 μg/ml were added to each well and incubated for 1-2 hours at RT. The plates were washed with PBS/Tween and then incubate with […] antibody conjugated with Horse Radish Peroxidase (HRP) for 1 hour at RT. After washing, the plates were developed with TMB substrate and analyzed by spectrophotometer at OD 450-630 nm. The Hu1210-41 antibody can bind to rhesus PD-L1 with lower affinity and cannot bind to rat and mouse PD-L1 (FIG. 8 & Table 12).

In assay [8] the target is T1, human PD-L1-Fc protein. Description: ELISA on coated human PD-L1-Fc. As for the experimental part: as §2
For assay [9], the target named is T1, human PD-L1-Fc protein. Nature of the assay: ELISA on coated human PD-L1-Fc; table row 'Human PD-L1', no unit in the table, x axis Ab(nM); Table 12 of the text prints 0.215 nM. The procedure:
as §2

For assay [10], the target named is T5, mouse PD-L1-Fc protein (mouse, UniProt Q9EP73 19-238, limits assumed).
T5 construct: not shown: Fc part
Description: ELISA on coated PD-L1-Fc. The procedure: as §2

Assay [11] addresses rat PD-L1-Fc protein (rat, UniProt D4AE25 19-239). Description: ELISA on coated PD-L1-Fc. The procedure:
as §2

The target in assay [12] is T6, B7-H2 (human, UniProt O75144 19-258, limits assumed).
T6 sequence (looked up): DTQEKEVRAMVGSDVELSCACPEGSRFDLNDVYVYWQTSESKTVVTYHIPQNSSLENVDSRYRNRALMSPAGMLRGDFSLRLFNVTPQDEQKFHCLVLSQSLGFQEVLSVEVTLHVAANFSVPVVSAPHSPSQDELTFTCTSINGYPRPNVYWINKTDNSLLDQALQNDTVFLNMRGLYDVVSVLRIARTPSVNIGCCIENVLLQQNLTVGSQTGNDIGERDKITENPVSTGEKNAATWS
Nature of the assay: ELISA.

In assay [13] the target is BTLA (human, UniProt Q7Z6A9 31-157, limits assumed). Nature of the assay: ELISA.
In assay [14] the target is T7, B7-1 protein (human, UniProt P33681 35-242, limits assumed, biotin-labeled in the blocking assay).
T7 construct: also called human B7-1; biotin-labeled B7-1
T7 sequence (looked up): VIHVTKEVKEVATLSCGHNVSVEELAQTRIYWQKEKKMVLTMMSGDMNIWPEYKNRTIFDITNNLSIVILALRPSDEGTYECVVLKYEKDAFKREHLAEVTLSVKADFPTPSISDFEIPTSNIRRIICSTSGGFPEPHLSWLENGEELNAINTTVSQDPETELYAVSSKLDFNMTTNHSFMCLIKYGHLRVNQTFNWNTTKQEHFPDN
Description: ELISA.

Assay [15] deals with CTLA4 (human, UniProt P16410 36-161, limits assumed). Nature of the assay: ELISA.
Assay [16] has as its target T8, ICOS (human, UniProt Q9Y6W8 21-140, limits assumed).
T8 sequence (looked up): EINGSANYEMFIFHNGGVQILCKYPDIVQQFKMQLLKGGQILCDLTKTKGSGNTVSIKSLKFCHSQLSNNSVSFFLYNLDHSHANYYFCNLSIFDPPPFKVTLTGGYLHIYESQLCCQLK
Nature of the assay: ELISA.

In assay [17] the target is CD28 (human, UniProt P10747 19-152). Nature of the assay: ELISA.
The target in assay [18] is T9, B7-2 (human, UniProt P42081 24-247, limits assumed).
T9 sequence (looked up): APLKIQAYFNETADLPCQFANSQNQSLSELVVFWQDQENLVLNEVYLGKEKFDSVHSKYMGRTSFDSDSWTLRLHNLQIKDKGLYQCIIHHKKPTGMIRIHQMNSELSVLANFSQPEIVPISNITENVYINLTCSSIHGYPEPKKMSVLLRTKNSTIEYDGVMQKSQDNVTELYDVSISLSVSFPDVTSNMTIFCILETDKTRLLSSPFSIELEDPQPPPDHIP
Description: ELISA.

The target in assay [19] is T10, B7-DC (human, UniProt Q9BQ51 20-220, limits assumed).
T10 sequence (looked up): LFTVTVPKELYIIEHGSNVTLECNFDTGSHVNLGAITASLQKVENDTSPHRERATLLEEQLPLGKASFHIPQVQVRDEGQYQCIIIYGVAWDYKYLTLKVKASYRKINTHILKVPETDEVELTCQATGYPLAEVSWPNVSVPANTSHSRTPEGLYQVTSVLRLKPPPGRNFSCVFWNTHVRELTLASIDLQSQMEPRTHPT
Description: ELISA.

The target in assay [20] is T11, huPD-1 (human, UniProt Q15116 25-167, limits assumed, biotin-labeled in the FACS blocking assays).
T11 construct: also called biotin-labeled huPD-1; Bio-PD1
Nature of the assay: ELISA.

Assay [21] deals with T1, human PD-L1-Fc protein. Description: receptor blocking assay, panel PD1; blocked ligand biotin-labeled human PD-1-Fc; by paragraph 296 an ELISA on coated PD-L1-Fc, though the sheet is headed 'Cell based receptor blocking assay'. Put shortly:
(§3)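 This protein-based receptor blocking ELISA used plates coated overnight at 4° C with human PD-L1-Fc at 1 μg/ml in PBS (100 μl/well), blocked with 5% BSA for 2 hr at 37° C. 50 μl biotin-labeled human PD-1-Fc or B7-1 protein plus 50 μl of 5-fold antibody dilutions starting from 100 nM were incubated for 1 hour at 37° C. Streptavidin-HRP was then added for 1 hour at 37° C. IC50 was read off the curve.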

In assay [22] the target is T1, human PD-L1-Fc protein. Description: receptor blocking assay, panel B7-1; blocked ligand biotin-labeled B7-1 protein; by paragraph 296 an ELISA on coated PD-L1-Fc, though the sheet is headed 'Cell based receptor blocking assay'. An outline of the steps: as §3

The source of these data is patent US20220363763A1 (ABL BIO, published 2022).

One may read the IC50 as the concentration that gives 50% inhibition. As a reminder, the Kd is the free concentration of one partner at which half of the binding sites on the other are occupied at equilibrium, for simple one-to-one binding. Read a low Kd as tighter binding. As a reminder, the koff is the first-order rate constant of dissociation. A low value points to a long-lived complex. By kon is commonly meant a measure of how fast the partners come together. High values mean faster complex formation, low ones slower complex formation. Broadly, the EC50 is the concentration giving half of the maximal effect.

T1 sequence (Q9NZQ7 19-239 limits assumed): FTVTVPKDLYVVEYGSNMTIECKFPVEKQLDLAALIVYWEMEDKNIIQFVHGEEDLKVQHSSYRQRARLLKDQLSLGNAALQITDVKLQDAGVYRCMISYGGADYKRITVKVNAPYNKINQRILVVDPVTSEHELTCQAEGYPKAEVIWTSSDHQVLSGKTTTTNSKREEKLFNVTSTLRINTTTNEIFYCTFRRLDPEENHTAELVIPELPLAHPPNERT
T2 sequence (Q9NZQ7 19-239 limits assumed): as above
T3 sequence (Q9NZQ7 19-290): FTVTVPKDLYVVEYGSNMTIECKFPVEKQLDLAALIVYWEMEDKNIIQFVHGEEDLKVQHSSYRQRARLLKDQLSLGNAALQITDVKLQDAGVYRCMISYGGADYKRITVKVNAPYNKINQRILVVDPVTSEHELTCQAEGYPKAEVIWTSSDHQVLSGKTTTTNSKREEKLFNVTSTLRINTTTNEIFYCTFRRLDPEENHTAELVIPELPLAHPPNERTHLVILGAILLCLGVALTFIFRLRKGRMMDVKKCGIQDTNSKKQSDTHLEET
T5 sequence (Q9EP73 19-238 limits assumed): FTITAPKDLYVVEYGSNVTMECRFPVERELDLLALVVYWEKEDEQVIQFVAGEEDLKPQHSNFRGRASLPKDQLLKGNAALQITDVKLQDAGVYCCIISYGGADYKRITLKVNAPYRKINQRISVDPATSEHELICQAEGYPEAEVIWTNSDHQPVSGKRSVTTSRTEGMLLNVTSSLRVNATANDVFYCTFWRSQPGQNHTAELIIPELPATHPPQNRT
rat PD-L1-Fc protein, sequence (D4AE25 entry or part of it limits assumed): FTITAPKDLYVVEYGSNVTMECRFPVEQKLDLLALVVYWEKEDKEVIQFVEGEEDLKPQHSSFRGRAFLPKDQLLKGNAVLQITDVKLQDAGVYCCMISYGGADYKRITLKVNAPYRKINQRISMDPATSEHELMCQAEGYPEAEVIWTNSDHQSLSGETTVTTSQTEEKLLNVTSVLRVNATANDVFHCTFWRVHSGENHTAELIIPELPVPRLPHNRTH
T11 sequence (Q15116 25-167 limits assumed): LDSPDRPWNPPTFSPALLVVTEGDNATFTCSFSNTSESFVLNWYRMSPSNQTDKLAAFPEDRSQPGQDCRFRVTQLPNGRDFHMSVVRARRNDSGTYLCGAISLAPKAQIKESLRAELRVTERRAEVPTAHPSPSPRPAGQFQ
CTLA4, sequence (P16410 36-161 limits assumed): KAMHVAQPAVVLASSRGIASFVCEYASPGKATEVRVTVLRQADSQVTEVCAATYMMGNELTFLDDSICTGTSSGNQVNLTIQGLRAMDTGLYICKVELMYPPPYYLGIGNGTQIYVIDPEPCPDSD

B1: HL1210-3 mouse mAb (antibody, V domains shown)
VH: EVKLVESGGDLVKPGGSLKLSCAASGFTFSSYDMSWVRQTPEKSLEWVATISDGGGYIYYSDSVKGRFTISRDNAKNNLYLQMSSLRSEDTALYICAREFGKRYALDYWGQGTSVT
VL: DIVMTQSHKFMSTSVGDRVSISCKASQDVTPAVAWYQQKPGQSPKLLIYSTSSRYTGVPDRFTGSGSGTDFTFTISSVQAEDLAVYYCQQHYTTPLTFGAGTKLELK
notes: Mouse monoclonal antibody purified from hybridoma; also called hybridoma clone HL1210-3
For B1, the IC50 in assay [1] was determined as 784 pM. In assay [2], binding was put at a Kd of 293 pM, the koff was 4.69e-05 s⁻¹ and the kon stood at 161000 M⁻¹ s⁻¹. In assay [3], this molecule yielded an IC50 of 2560 pM. In assay [4], this molecule returned an IC50 of 2560 pM. For the same molecule, in assay [5], the EC50 was 5.54 ng/mL.

B2: Hu1210-41 (antibody, V domains shown)
VH: EVQLVESGGGLVQPGGSLRLSCAASGFTFSSYDMSWVRQAPGKSLEWVATISDAGGYIYYSDSVKGRFTISRDNAKNSLYLQMNSLRDEDTAVYICAREFGKRYALDYWGQGTTVTVSS
VL: DIQMTQSPSSLSASVGDRVTITCKASQDVTPAVAWYQQKPGKAPKLLIYSTSSRYTGVPSRFSGSGSGTDFTFTISSLQPEDIATYYCQQHYTTPLTFGQGTKLEIK
notes: Hu1210 VH.4d x Vk.1; human gamma 1 / kappa constant domains; also called H12; Hu1210 VH.4d x Hu1210 Vk.1
On to B2, for which the Kd in assay [6] turned out to be 378 pM. In assay [6], the koff was 3.46e-05 s⁻¹. Also, the kon in assay [6] came out at 91700 M⁻¹ s⁻¹. The EC50 came to 628 pM in [7], 215 pM in [8] and 210 pM in assay [9]. Also, the binding result is “no binding (tested: 1 µg/ml (highest concentration))” in assay [10]; “no binding (tested: 1 µg/ml (highest concentration))” in assay [11]; “no binding” in assay [12]; “no binding” in assay [13]; “no binding” in assay [14]; “no binding” in assay [15]. Further, the binding result in assay [16], in assay [17], in [18], in assay [19] and in assay [20] was “no binding” in each case. The results for the “IC50 (read off the curve)” value in [21] and in [22] were roughly 1000 pM and roughly 900 pM, respectively.
